{"source": "paper PMC10031476", "about": "“Interaction of the bacterial division regulator MinE with lipid bicelles studied by NMR spectroscopy” (The Journal of Biological Chemistry, 2023)", "proteins": {"B1": {"name": "Full-length Neisseria gonorrhoeae MinE bearing the double mutation E46A/R10Q (natural protein)", "chain": "MSLIELLFGQKQKTATVARDRLQIIIAQERAQEGQTPDYLPTLRKALMEVLSKYVNVSLDNIRISQEKQDGMDVLELNITLPEQKKV", "modifications": "uniform 2H/15N or 2H/15N/13C isotope labeling", "notes": "Dimer with C2 symmetry (about 19 kDa); also called ngMinE; full-length ngMinE; not shown: His6, C-terminal, kept"}}, "target": "the molecule itself", "assay": "NMR (3D 15N-separated NOE spectrum, NOE-TROSY); 2H/15N-labeled ngMinE bound to q = 0.5 DMPC:DHPC bicelles; 150 ms mixing time; 35 °C; 25 mM potassium phosphate pH 6.5, 1 mM EDTA, 1 mM benzamidine hydrochloride", "data": [{"protein": "B1", "values": [{"measurement": "binding result", "value": "binds"}]}]}
